Patent US20040171105
Residue numbers refer to the chain shown, from its start.

Experiments:
[1] = biological target: GST fusion form of full-length human cIAP1, Q13490
[2] = biological target: mutant cIAP1 (recombinant cIAP1 mutated at the three preferred Omi cleavage sites, GST fusion) [GST: P08515]
[3] = biological target: T1, Livin α (human, N-terminal hexa-His tagged), Q96CA5
T1 chain: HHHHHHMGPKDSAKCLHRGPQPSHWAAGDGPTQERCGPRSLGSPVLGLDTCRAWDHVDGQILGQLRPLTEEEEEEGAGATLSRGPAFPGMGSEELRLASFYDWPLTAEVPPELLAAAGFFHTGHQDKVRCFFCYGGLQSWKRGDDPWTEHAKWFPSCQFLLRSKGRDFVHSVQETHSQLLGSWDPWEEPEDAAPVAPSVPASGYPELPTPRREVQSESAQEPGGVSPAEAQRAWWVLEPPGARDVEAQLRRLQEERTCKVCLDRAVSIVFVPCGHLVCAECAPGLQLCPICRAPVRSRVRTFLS

[4] = biological target: T2, Livin β (human, N-terminal hexa-His tagged), Q96CA5
T2 chain: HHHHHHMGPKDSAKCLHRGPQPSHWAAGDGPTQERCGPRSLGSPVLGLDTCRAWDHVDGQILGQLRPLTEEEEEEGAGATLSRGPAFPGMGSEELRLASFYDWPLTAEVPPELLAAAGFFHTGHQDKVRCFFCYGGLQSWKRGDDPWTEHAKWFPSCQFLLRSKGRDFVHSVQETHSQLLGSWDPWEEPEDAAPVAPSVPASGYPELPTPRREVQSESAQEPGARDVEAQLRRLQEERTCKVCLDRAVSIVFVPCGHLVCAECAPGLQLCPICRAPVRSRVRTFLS

[5] = biological target: GST fusion form of full-length human XIAP, P98170
[6] = biological target: GST fusion form of full-length human cIAP2, Q13489
[7] = biological target: T3, Smac (purified recombinant), Q9NR28
T3 chain: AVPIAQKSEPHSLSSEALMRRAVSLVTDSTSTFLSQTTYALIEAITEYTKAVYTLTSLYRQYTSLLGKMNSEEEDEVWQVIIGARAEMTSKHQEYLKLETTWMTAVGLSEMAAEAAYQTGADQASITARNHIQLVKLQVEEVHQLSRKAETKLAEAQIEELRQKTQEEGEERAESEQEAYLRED

[8] = biological target: T4, GST fusion form of full-length Drosophila DIAP1, Q24306
T4 chain: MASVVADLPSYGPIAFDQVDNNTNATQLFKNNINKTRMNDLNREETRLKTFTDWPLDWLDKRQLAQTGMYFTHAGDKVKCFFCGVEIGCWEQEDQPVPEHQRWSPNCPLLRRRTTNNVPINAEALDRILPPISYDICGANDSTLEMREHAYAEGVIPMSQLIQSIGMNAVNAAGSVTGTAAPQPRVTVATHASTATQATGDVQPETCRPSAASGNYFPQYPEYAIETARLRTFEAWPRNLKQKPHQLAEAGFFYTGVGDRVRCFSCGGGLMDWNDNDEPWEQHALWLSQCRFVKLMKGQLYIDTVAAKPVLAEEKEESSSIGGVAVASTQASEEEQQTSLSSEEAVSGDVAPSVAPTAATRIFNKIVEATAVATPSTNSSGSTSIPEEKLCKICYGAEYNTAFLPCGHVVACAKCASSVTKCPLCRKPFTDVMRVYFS

GST fusion form of full-length human cIAP1, Q13490, sequence (Q13490 whole entry, the tested form may be a part): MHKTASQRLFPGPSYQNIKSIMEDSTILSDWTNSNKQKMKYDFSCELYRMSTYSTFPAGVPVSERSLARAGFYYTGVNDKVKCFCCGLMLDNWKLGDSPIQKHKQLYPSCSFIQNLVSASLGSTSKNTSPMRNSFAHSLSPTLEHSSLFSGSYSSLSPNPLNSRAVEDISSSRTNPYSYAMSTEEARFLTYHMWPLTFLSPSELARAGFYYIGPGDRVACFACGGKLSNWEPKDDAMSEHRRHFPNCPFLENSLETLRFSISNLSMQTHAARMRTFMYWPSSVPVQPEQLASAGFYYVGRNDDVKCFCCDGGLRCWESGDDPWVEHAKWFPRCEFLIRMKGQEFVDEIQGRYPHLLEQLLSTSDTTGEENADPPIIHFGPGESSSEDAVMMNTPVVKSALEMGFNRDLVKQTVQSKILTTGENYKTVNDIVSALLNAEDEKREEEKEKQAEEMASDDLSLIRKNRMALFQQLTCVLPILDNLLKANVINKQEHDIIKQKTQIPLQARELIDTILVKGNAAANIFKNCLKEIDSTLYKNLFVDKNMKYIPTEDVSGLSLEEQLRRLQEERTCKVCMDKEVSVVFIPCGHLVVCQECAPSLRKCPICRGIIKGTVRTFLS
GST fusion form of full-length human cIAP2, Q13489, sequence (Q13489 whole entry, the tested form may be a part): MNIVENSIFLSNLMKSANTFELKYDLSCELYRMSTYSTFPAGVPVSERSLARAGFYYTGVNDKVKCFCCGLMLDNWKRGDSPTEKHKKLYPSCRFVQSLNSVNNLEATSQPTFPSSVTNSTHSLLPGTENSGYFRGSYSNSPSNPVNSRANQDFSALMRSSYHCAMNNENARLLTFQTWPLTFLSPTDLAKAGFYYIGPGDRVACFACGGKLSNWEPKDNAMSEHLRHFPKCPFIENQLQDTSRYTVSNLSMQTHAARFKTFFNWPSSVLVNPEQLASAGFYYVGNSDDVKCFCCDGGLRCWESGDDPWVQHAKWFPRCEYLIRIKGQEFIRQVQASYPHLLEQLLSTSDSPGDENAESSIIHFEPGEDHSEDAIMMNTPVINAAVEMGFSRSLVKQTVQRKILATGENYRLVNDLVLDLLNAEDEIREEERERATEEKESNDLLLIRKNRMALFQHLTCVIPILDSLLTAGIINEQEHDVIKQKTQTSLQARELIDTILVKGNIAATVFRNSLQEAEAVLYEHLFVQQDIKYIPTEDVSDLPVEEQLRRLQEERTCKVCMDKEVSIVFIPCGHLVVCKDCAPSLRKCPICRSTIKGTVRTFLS
GST fusion form of full-length human XIAP, P98170, sequence (P98170 whole entry, the tested form may be a part): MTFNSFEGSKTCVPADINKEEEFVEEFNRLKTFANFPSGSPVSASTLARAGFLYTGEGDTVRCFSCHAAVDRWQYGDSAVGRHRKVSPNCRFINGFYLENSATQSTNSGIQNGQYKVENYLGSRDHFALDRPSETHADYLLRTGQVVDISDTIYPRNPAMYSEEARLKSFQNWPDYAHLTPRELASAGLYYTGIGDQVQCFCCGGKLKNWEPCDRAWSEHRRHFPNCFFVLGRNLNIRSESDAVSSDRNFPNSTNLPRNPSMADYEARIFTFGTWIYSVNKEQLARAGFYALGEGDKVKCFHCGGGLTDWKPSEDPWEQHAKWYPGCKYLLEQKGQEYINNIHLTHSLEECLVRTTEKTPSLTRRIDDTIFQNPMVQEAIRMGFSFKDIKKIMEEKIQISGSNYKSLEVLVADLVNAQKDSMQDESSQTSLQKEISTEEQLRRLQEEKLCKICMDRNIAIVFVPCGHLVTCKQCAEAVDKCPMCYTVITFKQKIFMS

B1: endogenous caspase-9 of HeLa S100 extract, activated by dATP and cytochrome c (protein)
chain: MDEADRRLLRRCRLRLVEELQVDQLWDALLSRELFRPHMIEDIQRAGSGSRRDQARQLIIDLETRGSQALPLFISCLEDTGQDMLASFLRTNRQAAKLSKPTLENLTPVVLRPEIRKPEVLRPETPRPVDIGSGGFGDVGALESLRGNADLAYILSMEPCGHCLIINNVNFCRESGLRTRTGSNIDCEKLRRRFSSLHFMVEVKGDLTAKKMVLALLELAQQDHGALDCCVVVILSHGCQASHLQFPGAVYGTDGCPVSVEKIVNIFNGTSCPSLGGKPKLFFIQACGGEQKDHGFEVASTSPEDESPGSNPEPDATPFQEGLRTFDQLDAISSLPTPSDIFVSYSTFPGFVSWRDPKSGSWYVETLDDIFEQWAHSEDLQSLLLRVANAVSVKGIYKQMPGCFNFLRKKLFFKTS
[1]
  caspase activity in HeLa extracts (cleavage of 35S-labeled procaspase-3): Caspase activity was completely inhibited by 250 nM of cIAP1

B2: OmiΔ8 (Omi without the AVPS tetrapeptide, C-terminal hexa-His tagged) (protein)
chain: PPPASPRSQYNFIADVVEKTAPAVVYIEILDRHPFLGREVPISNGSGFVVAADGLIVTNAHVVADRRRVRVRLLSGDTYEAVVTAVDPVADIATLRIQTKEPLPTLPLGRSADVRQGEFVVAMGSPFALQNTITSGIVSSAQRPARDLGLPQTNVEYIQTDAAIDFGNSGGPLVNLDGEVIGVNTMKVTAGISFAIPSDRLREFLHRGEKKNSSSGISGSQRRYIGVMMLTLSPSILAELQLREPSFPDVQHGVLIHKVILGSPAHRAGLRPGDVILAIGEQMVQNAEDVYEAVRTQSQLAVQIRRGRETLTLYVTPEVTEHHHHHH
[1]
  cleavage of cIAP1 in vitro (SDS-PAGE, silver staining): A concentration (25 nM), 10-fold higher than the wild-type, was required to cleave IAP
  proteolytic efficiency against Omi WT: The proteolytic efficiency of Omi?8 was, therefore, 10-fold lower than that of Omi WT regarding cIAP1 cleavage

B3: Omi WT (wild-type mature Omi/HtrA2, C-terminal hexa-His tagged, recombinant from E. coli) (protein)
chain: AVPSPPPASPRSQYNFIADVVEKTAPAVVYIEILDRHPFLGREVPISNGSGFVVAADGLIVTNAHVVADRRRVRVRLLSGDTYEAVVTAVDPVADIATLRIQTKEPLPTLPLGRSADVRQGEFVVAMGSPFALQNTITSGIVSSAQRPARDLGLPQTNVEYIQTDAAIDFGNSGGPLVNLDGEVIGVNTMKVTAGISFAIPSDRLREFLHRGEKKNSSSGISGSQRRYIGVMMLTLSPSILAELQLREPSFPDVQHGVLIHKVILGSPAHRAGLRPGDVILAIGEQMVQNAEDVYEAVRTQSQLAVQIRRGRETLTLYVTPEVTEHHHHHH
Survivin, O15392
Survivin, O15392, sequence (O15392 whole entry, looked up): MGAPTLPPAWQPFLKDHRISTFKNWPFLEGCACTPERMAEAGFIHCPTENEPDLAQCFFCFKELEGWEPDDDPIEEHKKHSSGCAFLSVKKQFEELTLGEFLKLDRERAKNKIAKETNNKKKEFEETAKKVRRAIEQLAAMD
  cleavage in vitro (Western blot, anti-Survivin; 25 nM Survivin, 150 nM Omi WT): This cleavage activity, however, was absent for Survivin
[2]
  IAP cleavage and caspase reactivation in HeLa S100 extracts: Omi at 75 or 10 nM resulted in similar amount IAP cleavage and caspase reactivation for mutant and wild-type cIAP1, respectively
  resistance to Omi protease against wild-type cIAP1: mutant cIAP1 is ˜7.5-fold more resistant to Omi protease
[3]
  cleavage of Livin in vitro (Western blot, anti-Livin): Omi WT cleaved Livin α and Livin β
[4]
  cleavage of Livin in vitro (Western blot, anti-Livin): Omi WT cleaved Livin α and Livin β
[1]
  IAP cleavage and caspase reactivation in HeLa S100 extracts: Omi at 75 or 10 nM resulted in similar amount IAP cleavage and caspase reactivation for mutant and wild-type cIAP1, respectively
  cleavage of cIAP1 in vitro (SDS-PAGE, silver staining): Wild-type Omi (Omi WT) protein at 2.5 nM (nano Molar) almost completely cleaved 50 nM cIAP1
[5]
  cleavage of IAP in vitro: the wild-type Omi cleaved various forms of IAP proteins, including cIAP1, cIAP2, XIAP, Livin α and Livin β
[6]
  cleavage of IAP in vitro: the wild-type Omi cleaved various forms of IAP proteins, including cIAP1, cIAP2, XIAP, Livin α and Livin β
[7]
  proteolytic processing of Smac by Omi: Smac, therefore, was not cleavable by Omi
[8]
  cleavage of IAP in vitro: As shown in FIG. 1A, Omi WT cleaved IAP proteins

B4: Omi SA (protease dead mutant Omi S306→Ala, C-terminal hexa-His tagged) (protein)
chain: B3 chain with S173A
[1]
  cleavage of cIAP1 in vitro (Western blot, anti-GST): Omi WT cleaved the cIAP1, but the Omi SA did not

B5: OmiΔPDZ (Omi with the PDZ domain deleted, C-terminal hexa-His tagged) (protein)
chain: AVPSPPPASPRSQYNFIADVVEKTAPAVVYIEILDRHPFLGREVPISNGSGFVVAADGLIVTNAHVVADRRRVRVRLLSGDTYEAVVTAVDPVADIATLRIQTKEPLPTLPLGRSADVRQGEFVVAMGSPFALQNTITSGIVSSAQRPARDLGLPQTNVEYIQTDAAIDFGNSGGPLVNLDGEVIGVNTMKVTAGISFAIPSDRLREFLHRGEKKNSSSGISGSQHHHHHH
[1]
  cleavage of cIAP1 in vitro (SDS-PAGE, silver staining): The Omi?PDZ at 2.5 nM cleaved the full-length cIAP1 molecules into smaller fragments, whereas the Omi WT enzyme, at the same concentration, still left some uncleaved full-length cIAP1 molecules
